In the assay the target is FBF-1/CSR-1 heterodimer (GST-FBF-1 with His6-CSR-1(MID-PIWI)) (C. elegans) (UniProt Q9N5M6). Description: pull-down.

In general, stoichiometry N refers to a count of units in the complex or per binding partner. Recombinant EFT-3 (natural protein): the stoichiometry N was 1.

(Values after publication PMC3293257.)
